Test [1] concerns the target Strep-tagged Rab7A (Q67L) (human) (UniProt P51149). Nature of the test: pull-down; Strep-Rab7A(Q67L) and FLAG-tagged VPS13C constructs co-expressed in Expi293F; lysate (buffer A with 1 mM GTP, 2 mM MgCl2) on Strep-Tactin XT resin, eluted with biotin; SDS-PAGE with Coomassie and/or anti-FLAG western blot. Background: In western blotting, separated proteins are transferred to a membrane and probed.

Test [2] addresses Rab7A(Q67L)-6xHis (human) (UniProt P51149). Kind of test: liposome co-flotation; purified VPS13C constructs with SUVs (5% DGS-NTA) bearing His-tagged protein, 1 mM GTP, 2 mM Mg2+, room temperature 20 min; OptiPrep gradient, top fraction by SDS-PAGE.

Chain of Rab7A(Q67L)-6xHis (human) (P51149 whole entry Q67L): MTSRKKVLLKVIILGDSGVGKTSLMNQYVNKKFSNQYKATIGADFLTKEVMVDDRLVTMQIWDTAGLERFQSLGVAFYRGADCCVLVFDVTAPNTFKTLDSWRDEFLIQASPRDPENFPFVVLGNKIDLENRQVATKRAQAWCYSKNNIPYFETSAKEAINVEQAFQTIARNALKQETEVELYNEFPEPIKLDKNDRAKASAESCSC
Chain of Strep-tagged Rab7A (Q67L) (human) (P51149 whole entry Q67L): as above

Take “VPS13C-3XFLAG (full-length human VPS13C with a C-terminal 3xFLAG tag), Q709C8 1-3753”: in test [1], the fraction of total overexpressed VPS13 retained was determined as 5%.

In the case of VPS13C-ΔATG2C-3xFLAG, Q709C8 1-3753, the fraction co-floated with SUVs bearing His-tagged Rab7A in test [2] is > 80%.

(Values after paper PMC13430412.)
